{
  "source": "patent US20220154156A1",
  "about": "“PROTEINS AND METHODS FOR DISRUPTING BACTERIAL COMMUNICATION” (REGENTS OF THE UNIVERSITY OF MINNESOTA, priority 2019, published 2022)",
  "molecules": {"B1": {"name": "SsoPox W263I: improved variant of the hyperthermostable lactonase SsoPox from Sulfolobus solfataricus, exhibiting higher catalytic rates (protein, UniProt Q97VT7 1-314, looked up, variant W263I)", "Aryldialkylphosphatase": "MRIPLVGKDSIESKDIGFTLIHEHLRVFSEAVRQQWPHLYNEDEEFRNAVNEVKRAMQFGVKTIVDPTVMGLGRDIRFMEKVVKATGINLVAGTGIYIYIDLPFYFLNRSIDEIADLFIHDIKEGIQGTLNKAGFVKIAADEPGITKDVEKVIRAAAIANKETKVPIITHSNAHNNTGLEQQRILTEEGVDPGKILIGHLGDTDNIDYIKKIADKGSFIGLDRYGLDLFLPVDKRNETTLRLIKDGYSDKIMISHDYCCTIDIGTAKPEYKPKLAPRWSITLIFEDTIPFLKRNGVNEEVIATIFKENPKKFFS"}},
  "key": {"[1]": {"tested_on": "Xanthomonas translucens pv. translucens LMG876", "assay": "Barley leaf infection", "assay_type": "in vivo", "settings": "single spraying of 1 mL, 10 mg/mL", "description": "FIG. 30A-30F show control of plant infections by a single spraying of 1 mL of lactonase solution (10 mg/mL) on plant leaves and crop. (A) and (B) Soft rot potato assay.\nSpecifically, we could establish infection systems for corn, wheat, and barley plants, and a crop infection system for potato (tubers and leaves)."}, "[2]": {"tested_on": "soil bacterial community", "assay": "Different lactonases on soil microbial community (Example 8)", "assay_type": "cell-based", "settings": "7 days, vs inactive SsoPox 5A8", "description": "Principal component analysis (PCA) based on deep bacterial 16S rDNA sequences (Illumina V4 region).\nThe same experiments as described above were performed on the same soil microbial community but with two different lactonases, GcL, and Ssopox W263I. These enzymes differ primarily by their substrate specificity. […] This is important because different bacteria use different AHLs to communicate. Indeed, The structure of AHLs vary a lot with respect to the length of N-acyl chains (from C4 to C18), the hydroxyl or oxo group of the acyl chain and the saturated or unsaturated state of the carbon chain^1. The hydrophobicity of AHLs relates to their passive diffusion through membranes. […] In fact, regulatory circuits may be interconnected, like in P. aeruginosa^6, and allow for compensatory responses: if the LasI/LasR system is inactivated, the RhlI/RhlR system can still control LasI/LasR-spectific functions^7."}, "[3]": {"tested_on": "complex soil microbial community", "assay": "Biofilm quantification in flow-through recirculating bioreactor", "assay_type": "cell-based", "settings": "over 21 days", "description": "After overnight induction (18° C., 0.2% L-Arabinose, 200 RPM shaking), cells overexpressing proteins were centrifuged (4,400×g, 20 min, 4° C.) and re-suspended in 100 mM potassium phosphate buffer, pH 7, at a concentration of 0.4 g/mL wet weight (0.2 g/mL for the 1× lactonase beads). Gel beads (1 mm diameter) containing the lactonase/control bacteria cultures were made using a dripping method while gelation occurred, using a method similar to a previously used protocol^41 400 mg PEG (average molecular weight, 10,000 Da) was mixed with 4 mL acetic acid (0.01M) until the PEG dissolved. […]\nThe flow-through system used in this study consisted of three 3-liter tanks set up in parallel. […] Each tank contained three liters of 15× diluted LB media in water and a pre-broken 96-stripwell plate was submerged to the bottom (so that individual wells could be harvested for either biofilm quantification or DNA extraction). […]\nInside each of the tanks sat two submerged 96-stripwell plates. […] Individual wells were extracted in triplicate for crystal violet biofilm quantification (OD550 nm) using a similar protocol as previously described^13. […] To quantify biofilm, the remaining crystal violet stained to the wells was solubilized with 125 μL of 30% acetic acid and this solution was read on a spectrophotometer at 550 nm. […]"}, "[4]": {"tested_on": "corrosion tubercles on steel coupons", "assay": "Dose-response of lactonase for inhibiting biocorrosion, 7 weeks", "description": "Five treatments with lactonase enzyme and two controls of the steel coupons were investigated for enzyme activity and corrosion rate. Each treatment or control contained three replicate steel coupons. They were exposed in lake water in lab microcosm for a period of 7 weeks. Lactonase enzyme silica gel coated testing coupon are prepared as described before, except the coupons were dipped and dried twice and covered with 2 layers of the same coating to ensure the intactness of the coating. The enzyme concentrations used in this experiment were 100, 200, 500, 1000 μg/ml. Also 100 μg/ml equivalent activity lactonase raw extract was tested to compare the effectiveness of raw enzyme extract to the purified lactonase enzyme.\nAfter 7 weeks of exposure, coupons were retrieved and analyzed. The coupons in each treatment was photographed by the end of the experiment. Biocorrosion was evaluated by quantities and coverage of corrosion tubercle. Surface roughness measurement were also made with procedure described above."}, "[5]": {"settings": "all concentrations 100-1000 μg/ml, 7 weeks, p<0.05"}},
  "data": [
    {"molecule": "B1", "values": [
      {"measurement": "leaf spots on barley leaves", "setting": "[1]", "result": "Absence of leaf spots"},
      {"measurement": "planktonic microbial community composition", "setting": "[2]", "result": "induce differential planktonic microbial community biases"},
      {"measurement": "reduction of biofilm formation", "setting": "[3]", "result": 2, "unit": "fold"},
      {"measurement": "reduction of number of corrosion tubercles", "setting": "[4]; [5]", "result": "> 38", "unit": "%"},
      {"measurement": "reduction of percent coverage of corrosion tubercles", "setting": "[4]; [5]", "result": "> 41", "unit": "%"},
      {"measurement": "reduction of surface roughness", "setting": "[4]; all treatments", "result": "not statistically significant"},
      {"measurement": "optimal concentration for coating application", "setting": "[4]; highest reduction of corrosion tubercles", "result": 200, "unit": "µg/mL"}
    ]}
  ]
}
